Data from publication PMC4837482, “The complex binding mode of the peptide hormone H2 relaxin to its receptor RXFP1” (Nature Communications, 2016).

Key:
RXFP1 G45W46-AA = molecular target: T1, RXFP1 G45W46-AA (Homo sapiens, UniProt Q9HBX9, G67A/W68A); assay: Eu-H2 relaxin saturation binding assay, transfected HEK293T cells; details: construct G45W46-AA, maximum H2 concentration 15 nM
T1 construct: transiently transfected human embryonic kidney (HEK) 293T cells expressing full-length RXFP1 and mutants; expressed in transfected cells; host or cells: HEK293T
T1 sequence (Q9HBX9 23-757 G67A/W68A limits assumed): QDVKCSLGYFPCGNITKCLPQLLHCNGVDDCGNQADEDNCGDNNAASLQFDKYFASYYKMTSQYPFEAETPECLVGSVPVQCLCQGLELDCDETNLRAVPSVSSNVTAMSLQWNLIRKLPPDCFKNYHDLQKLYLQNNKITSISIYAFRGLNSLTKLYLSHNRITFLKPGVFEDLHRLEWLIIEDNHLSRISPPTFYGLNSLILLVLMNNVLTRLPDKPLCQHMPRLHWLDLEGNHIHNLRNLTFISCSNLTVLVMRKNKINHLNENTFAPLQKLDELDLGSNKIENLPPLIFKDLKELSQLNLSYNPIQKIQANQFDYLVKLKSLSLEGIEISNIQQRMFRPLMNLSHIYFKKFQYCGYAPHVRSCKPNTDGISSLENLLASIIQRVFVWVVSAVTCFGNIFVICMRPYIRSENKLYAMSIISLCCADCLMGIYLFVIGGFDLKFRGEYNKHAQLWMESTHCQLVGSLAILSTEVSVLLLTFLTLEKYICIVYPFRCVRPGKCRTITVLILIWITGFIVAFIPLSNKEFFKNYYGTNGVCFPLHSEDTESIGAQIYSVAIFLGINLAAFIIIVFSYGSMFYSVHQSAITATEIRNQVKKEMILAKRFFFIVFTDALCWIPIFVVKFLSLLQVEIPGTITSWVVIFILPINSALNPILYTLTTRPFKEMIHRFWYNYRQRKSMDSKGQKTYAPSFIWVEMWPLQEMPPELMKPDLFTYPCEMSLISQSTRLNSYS

[1] = molecular target: RXFP1 M60A, full length (human)
[2] = molecular target: T2, RXFP1 D51A, full length (human)
T2 sequence (Q9HBX9 1-757 with D51A, looked up): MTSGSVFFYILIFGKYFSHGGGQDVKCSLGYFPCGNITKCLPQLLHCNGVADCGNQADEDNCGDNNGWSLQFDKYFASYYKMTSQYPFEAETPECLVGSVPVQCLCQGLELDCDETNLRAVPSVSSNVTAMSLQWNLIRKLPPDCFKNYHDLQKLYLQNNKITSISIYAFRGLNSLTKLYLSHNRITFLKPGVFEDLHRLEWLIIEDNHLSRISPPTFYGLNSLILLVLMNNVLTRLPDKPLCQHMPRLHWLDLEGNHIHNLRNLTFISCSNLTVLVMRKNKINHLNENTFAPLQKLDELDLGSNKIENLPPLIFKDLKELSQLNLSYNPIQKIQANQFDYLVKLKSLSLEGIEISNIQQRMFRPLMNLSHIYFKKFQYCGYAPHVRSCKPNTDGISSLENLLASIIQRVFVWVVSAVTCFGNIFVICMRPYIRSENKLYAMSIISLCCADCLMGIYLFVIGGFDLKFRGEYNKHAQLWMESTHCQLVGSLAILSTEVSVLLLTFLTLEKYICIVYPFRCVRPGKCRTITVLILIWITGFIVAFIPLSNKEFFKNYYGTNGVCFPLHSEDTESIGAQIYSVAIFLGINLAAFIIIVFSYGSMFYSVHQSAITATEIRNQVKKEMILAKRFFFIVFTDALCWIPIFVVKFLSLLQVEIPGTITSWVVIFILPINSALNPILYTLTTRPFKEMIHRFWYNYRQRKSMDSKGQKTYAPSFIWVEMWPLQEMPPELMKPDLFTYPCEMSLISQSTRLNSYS

[3] = molecular target: RXFP1 W46A, full length (human)
[4] = molecular target: RXFP1 T61A, full length (human)
[5] = molecular target: RXFP1 S47A/L48A, full length (human)
[6] = molecular target: relaxin family peptide receptor-1 (RXFP1), wild type, full length (human) (UniProt Q9HBX9)
[7] = molecular target: RXFP1 F54A/Y58A, full length (human)
[8] = molecular target: RXFP1 G45A, full length (human)
[9] = molecular target: RXFP1 F66A, full length (human)
[10] = molecular target: RXFP1 E67A^ins, full length (human)
[11] = molecular target: RXFP1 Y57A, full length (human)
[12] = molecular target: RXFP1 A55L, full length (human)
[13] = molecular target: RXFP1 G41A, full length (human)
[14] = molecular target: RXFP1 F54A, full length (human)
[15] = molecular target: RXFP1 E67A, full length (human)

Row | Molecule | Kd (RXFP1 G45W46-AA) [nM] | H2 relaxin-induced cAMP response (pCRE β-galactosidase reporter, HEK293T), pEC50 [1] [pEC50] | H2 relaxin-induced cAMP response (pCRE β-galactosidase reporter, HEK293T), pEC50 [2] [pEC50] | H2 relaxin-induced cAMP response (pCRE β-galactosidase reporter, HEK293T), pEC50 [3] [pEC50] | H2 relaxin-induced cAMP response (pCRE β-galactosidase reporter, HEK293T), pEC50 [4] [pEC50] | H2 relaxin-induced cAMP response (pCRE β-galactosidase reporter, HEK293T), pEC50 [5] [pEC50] | H2 relaxin-induced cAMP response (pCRE β-galactosidase reporter, HEK293T), pEC50 [6] [pEC50] | H2 relaxin-induced cAMP response (pCRE β-galactosidase reporter, HEK293T), pEC50 [7] [pEC50] | H2 relaxin-induced cAMP response (pCRE β-galactosidase reporter, HEK293T), pEC50 [8] [pEC50] | H2 relaxin-induced cAMP response (pCRE β-galactosidase reporter, HEK293T), pEC50 [9] [pEC50] | H2 relaxin-induced cAMP response (pCRE β-galactosidase reporter, HEK293T), pEC50 [10] [pEC50] | H2 relaxin-induced cAMP response (pCRE β-galactosidase reporter, HEK293T), pEC50 [11] [pEC50] | H2 relaxin-induced cAMP response (pCRE β-galactosidase reporter, HEK293T), pEC50 [12] [pEC50] | H2 relaxin-induced cAMP response (pCRE β-galactosidase reporter, HEK293T), pEC50 [13] [pEC50] | H2 relaxin-induced cAMP response (pCRE β-galactosidase reporter, HEK293T), pEC50 [14] [pEC50] | H2 relaxin-induced cAMP response (pCRE β-galactosidase reporter, HEK293T), pEC50 [15] [pEC50]
1 | H2 relaxin: two-chain 6-kDa peptide hormone structurally related to insulin; recombinant human gene-2 H2 relaxin provided by Corthera | > 20 | – | – | – | – | – | – | – | – | – | – | – | – | – | – | –
2 | H2 relaxin (ligand, human) chain 1: QLYSALANKCCHVGCTKRSLARFC chain 2: DSWMEEVIKLCGRELVRAQIAICGMSTWS | – | 11.2 | 11 | 7.02 | 11.2 | 11.1 | 11 | 9.87 | 7.48 | 11.2 | 11.3 | 10.9 | 10.8 | 11.1 | 10.2 | 11.1
